# Patent publication US20170152299A1 (GUANGZHOU SHENGLU BIOTECH, published 2017)
# T1: FGF7 (UniProt P21781 32-194)
# T1 construct: Bought reagent; also called KGF
# T1 sequence (looked up): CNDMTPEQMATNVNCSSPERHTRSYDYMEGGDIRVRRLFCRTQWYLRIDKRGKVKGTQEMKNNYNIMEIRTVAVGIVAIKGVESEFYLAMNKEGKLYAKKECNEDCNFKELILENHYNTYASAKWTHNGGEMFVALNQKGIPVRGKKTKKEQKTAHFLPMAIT
# Molecular target: T1, FGF7
# Experiment: isothermal titration calorimetry; FGF7 titrated into the truncated FGFR2b extracellular fragment in the sample cell (Example 8)
# Method: The three types of the FGFR2b extracellular fragments and FGF7 (purchased from Millipore) were dialysed respectively with iTC buffer (0.15 mol/L NaCl and 5% glycerol in 20 mmol/L Na₂HPO₄-citrate buffer, pH 7.2). The proteins after the dialysis was centrifuged at 4° C. and 18000 rpm for 30 min before the iTC experiment.
# 400 ul 35 μmol/L of each of the three types of the FGFR2b extracellular fragments was added to the sample pool, respectively, and titrated with 200 μl 93 μmol/LFGF7 at 2 μl per time at a 2.5 min interval for a total of 20 drops.
row,Ka,Binder
1,8.74e+06 M⁻¹,"truncated protein of the wild-type FGFR2b extracellular fragment (SEQ ID NO: 8) (receptor, also called truncated FGFR2b extracellular fragment, wild type) KRAPYWTNTEKMEKRLHAVPAANTVKFRCPAGGNPMPTMRWLKNGKEFKQEHRIGGYKVRNQHWSLIMESVVPSDKGNYTCVVENEYGSINHTYHLDVVERSPHRPILQAGLPANASTVVGGDVEFVCKVYSDAQPHIQWIKHVEKNGSKYGPDGLPYLKVLKHSGINSSNAEVLALFNVTEADAGEYICKVSNYIGQANQSAWLTVLPKQQAPGR"
2,3.94e+07 M⁻¹,"truncated protein of P253R mutant-type FGFR2b extracellular fragment (SEQ ID NO: 12) (receptor, also called truncated FGFR2b extracellular fragment, P253R mutant type) KRAPYWTNTEKMEKRLHAVPAANTVKFRCPAGGNPMPTMRWLKNGKEFKQEHRIGGYKVRNQHWSLIMESVVPSDKGNYTCVVENEYGSINHTYHLDVVERSRHRPILQAGLPANASTVVGGDVEFVCKVYSDAQPHIQWIKHVEKNGSKYGPDGLPYLKVLKHSGINSSNAEVLALFNVTEADAGEYICKVSNYIGQANQSAWLTVLPKQQAPGR"
3,1.26e+08 M⁻¹,"truncated protein of S252W mutant-type FGFR2b extracellular fragment (SEQ ID NO: 10) (receptor, also called truncated FGFR2b extracellular fragment, S252W mutant type) KRAPYWTNTEKMEKRLHAVPAANTVKFRCPAGGNPMPTMRWLKNGKEFKQEHRIGGYKVRNQHWSLIMESVVPSDKGNYTCVVENEYGSINHTYHLDVVERWPHRPILQAGLPANASTVVGGDVEFVCKVYSDAQPHIQWIKHVEKNGSKYGPDGLPYLKVLKHSGINSSNAEVLALFNVTEADAGEYICKVSNYIGQANQSAWLTVLPKQQAPGR"
